The text below walks through data of patent publication US20240124607A1 (Merck Sharp & Dohme, published 2024).

The target of one test is T1, Human CEACAM5 I113T (human, UniProt P06731 35-685, limits assumed).
T1 sequence: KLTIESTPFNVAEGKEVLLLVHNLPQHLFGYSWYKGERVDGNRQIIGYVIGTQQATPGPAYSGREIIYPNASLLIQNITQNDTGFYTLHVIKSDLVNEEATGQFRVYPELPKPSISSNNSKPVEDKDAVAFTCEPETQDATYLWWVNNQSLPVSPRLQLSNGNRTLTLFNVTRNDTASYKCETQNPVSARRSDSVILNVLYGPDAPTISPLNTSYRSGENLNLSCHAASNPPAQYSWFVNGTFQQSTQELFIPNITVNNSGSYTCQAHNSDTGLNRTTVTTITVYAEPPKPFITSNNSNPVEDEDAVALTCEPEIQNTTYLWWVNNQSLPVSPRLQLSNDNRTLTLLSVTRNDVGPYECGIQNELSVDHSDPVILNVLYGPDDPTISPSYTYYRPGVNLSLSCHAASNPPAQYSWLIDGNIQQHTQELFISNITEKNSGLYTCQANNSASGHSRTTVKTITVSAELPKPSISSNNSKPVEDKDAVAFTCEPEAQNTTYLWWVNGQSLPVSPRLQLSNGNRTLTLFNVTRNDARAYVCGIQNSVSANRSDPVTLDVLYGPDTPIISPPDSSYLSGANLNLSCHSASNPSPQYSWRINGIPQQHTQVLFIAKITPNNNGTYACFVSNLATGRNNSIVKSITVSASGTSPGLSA
The test is described as follows: SPR, 37C, pH 7.4; reference E398. For orientation: SPR reads the build-up and loss of mass on a sensor chip optically.

Test [1] addresses T2, Human CEACAM5 I80V V83A I112V I113T (human, UniProt P06731 35-685, limits assumed).
T2 chain: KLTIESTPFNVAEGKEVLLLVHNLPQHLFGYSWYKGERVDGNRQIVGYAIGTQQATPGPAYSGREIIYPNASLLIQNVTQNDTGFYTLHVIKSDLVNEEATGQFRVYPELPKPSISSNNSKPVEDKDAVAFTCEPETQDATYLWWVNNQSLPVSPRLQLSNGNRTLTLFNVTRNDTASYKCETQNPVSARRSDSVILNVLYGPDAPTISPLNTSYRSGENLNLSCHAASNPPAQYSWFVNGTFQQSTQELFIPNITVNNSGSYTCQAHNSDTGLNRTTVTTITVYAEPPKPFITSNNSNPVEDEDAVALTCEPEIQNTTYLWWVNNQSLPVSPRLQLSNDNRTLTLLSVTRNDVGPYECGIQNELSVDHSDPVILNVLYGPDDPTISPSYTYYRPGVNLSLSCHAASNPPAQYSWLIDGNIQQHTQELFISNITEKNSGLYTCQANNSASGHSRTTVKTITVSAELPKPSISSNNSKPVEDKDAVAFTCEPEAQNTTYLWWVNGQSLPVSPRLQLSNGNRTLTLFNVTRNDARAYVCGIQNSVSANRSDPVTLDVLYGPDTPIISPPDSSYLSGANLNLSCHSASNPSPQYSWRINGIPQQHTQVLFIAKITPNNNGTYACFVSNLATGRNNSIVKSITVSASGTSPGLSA
The test is described as follows: SPR, 37C, pH 7.4; reference E398.

The target in another test is T3, human CEACAM5 on cells (human, UniProt P06731 35-685).
T3 sequence: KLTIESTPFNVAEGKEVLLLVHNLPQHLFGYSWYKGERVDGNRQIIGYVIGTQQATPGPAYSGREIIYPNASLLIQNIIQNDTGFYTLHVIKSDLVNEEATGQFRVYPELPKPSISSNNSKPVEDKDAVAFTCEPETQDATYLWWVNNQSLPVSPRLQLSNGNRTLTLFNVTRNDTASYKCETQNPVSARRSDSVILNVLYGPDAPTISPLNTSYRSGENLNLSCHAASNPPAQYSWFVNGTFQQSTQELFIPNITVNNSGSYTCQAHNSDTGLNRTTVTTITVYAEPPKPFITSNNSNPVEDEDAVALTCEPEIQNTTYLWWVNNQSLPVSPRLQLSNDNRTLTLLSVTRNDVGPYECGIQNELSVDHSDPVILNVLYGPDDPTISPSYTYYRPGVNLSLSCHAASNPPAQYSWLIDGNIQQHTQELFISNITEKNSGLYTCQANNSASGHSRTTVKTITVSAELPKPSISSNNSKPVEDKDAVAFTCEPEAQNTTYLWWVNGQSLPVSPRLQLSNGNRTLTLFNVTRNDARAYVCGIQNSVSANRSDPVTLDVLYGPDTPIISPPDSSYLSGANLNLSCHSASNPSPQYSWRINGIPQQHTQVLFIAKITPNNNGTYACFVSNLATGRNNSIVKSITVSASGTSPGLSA
Description: cell-based or functional assay.

For test [2], the target named is T4, Human CEACAM5 (E398) (human, UniProt P06731 35-685, limits assumed).
T4 construct: also called hCEACAM5
T4 sequence: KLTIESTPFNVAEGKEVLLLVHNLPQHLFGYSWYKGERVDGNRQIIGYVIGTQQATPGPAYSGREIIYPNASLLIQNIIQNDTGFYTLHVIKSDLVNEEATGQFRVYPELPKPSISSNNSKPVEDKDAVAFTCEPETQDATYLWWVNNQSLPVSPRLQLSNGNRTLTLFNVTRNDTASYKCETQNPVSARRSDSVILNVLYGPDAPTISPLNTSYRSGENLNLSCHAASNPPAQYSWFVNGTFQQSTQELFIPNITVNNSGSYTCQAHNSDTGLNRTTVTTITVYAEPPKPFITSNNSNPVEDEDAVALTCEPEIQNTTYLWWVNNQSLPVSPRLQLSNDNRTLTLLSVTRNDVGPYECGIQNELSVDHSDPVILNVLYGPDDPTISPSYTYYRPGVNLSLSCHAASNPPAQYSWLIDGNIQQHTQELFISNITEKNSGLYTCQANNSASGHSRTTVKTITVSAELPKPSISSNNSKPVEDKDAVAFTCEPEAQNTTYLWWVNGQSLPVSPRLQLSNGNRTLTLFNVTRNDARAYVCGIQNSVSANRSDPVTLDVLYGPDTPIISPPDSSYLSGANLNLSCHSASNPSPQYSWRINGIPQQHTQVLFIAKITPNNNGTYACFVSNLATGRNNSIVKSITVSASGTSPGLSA
Description: SPR, anti-hFc capture, 37C, pH 6.0. How it is done: (§1) To determine the affinity and cross-reactivity of CEACAM5 TriNKET molecules, AB0411, AB0466, or AB0621 TriNKETs were captured using an anti-human Fc capture antibody (Cytiva, #BR100839) immobilized onto a Biacore CM5 standard surface sensor chip following manufacturer instructions. Human or cynomolgus CEACAM5 were titrated over captured AB0411, AB0466, and AB0621 as 2-fold serial dilutions starting from 300 nM. Association was monitored for 300 sec and dissociation was monitored for 600 sec. The assay was run at 37° C. at pH 7.4 and 6.0. The surface of the CM5 chip was regenerated with 10 mM glycine pH 1.5 for 20 sec at 100 μL/min.

For test [3], the target named is T4, Human CEACAM5 (E398). Description: SPR, anti-hFc capture, 37C, pH 7.4. Here is the method: as §1

B1: AB0466 F3' CEACAM5 TriNKET (bispecific antibody, human IgG1, kappa)
chain: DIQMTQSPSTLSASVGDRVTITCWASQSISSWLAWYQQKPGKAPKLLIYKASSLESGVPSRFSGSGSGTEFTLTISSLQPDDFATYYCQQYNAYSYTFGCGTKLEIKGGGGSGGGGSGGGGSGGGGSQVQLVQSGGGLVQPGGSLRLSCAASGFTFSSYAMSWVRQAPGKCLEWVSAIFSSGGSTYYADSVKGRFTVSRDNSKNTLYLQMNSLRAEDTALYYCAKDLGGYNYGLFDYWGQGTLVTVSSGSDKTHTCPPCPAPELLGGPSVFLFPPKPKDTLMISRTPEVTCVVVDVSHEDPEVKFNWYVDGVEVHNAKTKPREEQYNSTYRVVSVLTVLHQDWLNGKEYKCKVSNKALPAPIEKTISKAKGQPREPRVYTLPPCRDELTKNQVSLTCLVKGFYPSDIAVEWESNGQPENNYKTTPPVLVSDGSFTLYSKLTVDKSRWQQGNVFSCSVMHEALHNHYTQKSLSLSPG
heavy: EVQLVESGGGLVKPGGSLRLSCAASGFTFSSYSMNWVRQAPGKGLEWVSSISSSSSYIYYADSVKGRFTISRDNAKNSLYLQMNSLRAEDTAVYYCARGAPIGAAAGWFDPWGQGTLVTVSSASTKGPSVFPLAPSSKSTSGGTAALGCLVKDYFPEPVTVSWNSGALTSGVHTFPAVLQSSGLYSLSSVVTVPSSSLGTQTYICNVNHKPSNTKVDKKVEPKSCDKTHTCPPCPAPELLGGPSVFLFPPKPKDTLMISRTPEVTCVVVDVSHEDPEVKFNWYVDGVEVHNAKTKPREEQYNSTYRVVSVLTVLHQDWLNGKEYKCKVSNKALPAPIEKTISKAKGQPREPQVCTLPPSRDELTENQVSLTCLVKGFYPSDIAVEWESNGQPENNYKTTPPVLDSDGSFFLYSWLTVDKSRWQQGNVFSCSVMHEALHNHYTQKSLSLSPG
light: DIQMTQSPSSVSASVGDRVTITCRASQGISSWLAWYQQKPGKAPKLLIYAASSLQSGVPSRFSGSGSGTDFTLTISSLQPEDFATYYCQQGVSFPRTFGGGTKVEIKRTVAAPSVFIFPPSDEQLKSGTASVVCLLNNFYPREAKVQWKVDNALQSGNSQESVTEQDSKDSTYSLSSTLTLSKADYEKHKVYACEVTHQGLSSPVTKSFNRGEC
With B1, the “KD/KD(Ref)” value in the test with Human CEACAM5 I113T worked out at 1.2 fold. The “KD/KD(Ref)” value in test [1] came out at 8.5 fold. Also, in the test with human CEACAM5 on cells, the “EC50 (nM), NK lysis of HPAF-II (DELFIA)” value came out at 0.23 nM; the “EC50 (nM), NK lysis of LS-174T (DELFIA)” value turned out to be 0.46 nM; the “EC50 (nM), NK lysis of SK-CO-1 (DELFIA)” value is 9.07 nM; the “EC50 (nM), NK lysis of ZR-75-30 (DELFIA)” value turned out to be 0.8 nM. In the test with human CEACAM5 on cells, the “Max Killing (%), HPAF-II” value is 16.5%; the “Max Killing (%), LS-174T” value stood at 20.5%; the “Max Killing (%), SK-CO-1” value came to 75.1%; the “Max Killing (%), ZR-75-30” value came out at 21.4%. In the test with Human CEACAM5 (E398) [2], this molecule displayed a Kd of 15 nM and an association rate constant (kon) of 160000 M⁻¹ s⁻¹. Also, in the test with Human CEACAM5 (E398) [3], the Kd came to 7.2 nM and the kon was determined as 190000 M⁻¹ s⁻¹.

B2: AB0621 F3' CEACAM5 TriNKET (bispecific antibody, human IgG1, kappa)
chain: DIVMTQSPDSLAVSLGERATINCKSSHSLLYGNFQNNYLAWYQQKPGQPPKLLIYWASTRESGVPDRFSGSGSGTDFTLTISSLQAEDVAVYYCQQYYSYPYTFGCGTKLEIKGGGGSGGGGSGGGGSGGGGSQVQLVQSGAEVKKPGASVKVSCKASGYTFTAYTIHWVRQAPGQCLEWMGYINPSSGYTEYNQKFKDRTTLTADTSISTAYMELSRLRSDDTAVYYCTREGGLLWFDYWGQGTLVTVSSGSDKTHTCPPCPAPELLGGPSVFLFPPKPKDTLMISRTPEVTCVVVDVSHEDPEVKFNWYVDGVEVHNAKTKPREEQYNSTYRVVSVLTVLHQDWLNGKEYKCKVSNKALPAPIEKTISKAKGQPREPRVYTLPPCRDELTKNQVSLTCLVKGFYPSDIAVEWESNGQPENNYKTTPPVLVSDGSFTLYSKLTVDKSRWQQGNVFSCSVMHEALHNHYTQKSLSLSPG
heavy: EVQLVESGGGLVKPGGSLRLSCAASGFTFSSYSMNWVRQAPGKGLEWVSSISSSSSYIYYADSVKGRFTISRDNAKNSLYLQMNSLRAEDTAVYYCARGAPIGAAAGWFDPWGQGTLVTVSSASTKGPSVFPLAPSSKSTSGGTAALGCLVKDYFPEPVTVSWNSGALTSGVHTFPAVLQSSGLYSLSSVVTVPSSSLGTQTYICNVNHKPSNTKVDKKVEPKSCDKTHTCPPCPAPELLGGPSVFLFPPKPKDTLMISRTPEVTCVVVDVSHEDPEVKFNWYVDGVEVHNAKTKPREEQYNSTYRVVSVLTVLHQDWLNGKEYKCKVSNKALPAPIEKTISKAKGQPREPQVCTLPPSRDELTENQVSLTCLVKGFYPSDIAVEWESNGQPENNYKTTPPVLDSDGSFFLYSWLTVDKSRWQQGNVFSCSVMHEALHNHYTQKSLSLSPG
light: DIQMTQSPSSVSASVGDRVTITCRASQGISSWLAWYQQKPGKAPKLLIYAASSLQSGVPSRFSGSGSGTDFTLTISSLQPEDFATYYCQQGVSFPRTFGGGTKVEIKRTVAAPSVFIFPPSDEQLKSGTASVVCLLNNFYPREAKVQWKVDNALQSGNSQESVTEQDSKDSTYSLSSTLTLSKADYEKHKVYACEVTHQGLSSPVTKSFNRGEC
B2: in the test with Human CEACAM5 I113T, the “KD/KD(Ref)” value turned out to be 1.7 fold. Besides, the “KD/KD(Ref)” value in test [1] was 1.3 fold. In the test with human CEACAM5 on cells, the “EC50 (nM), NK lysis of HPAF-II (DELFIA)” value amounted to 0.72 nM; the “EC50 (nM), NK lysis of LS-174T (DELFIA)” value is 1.87 nM; the “EC50 (nM), NK lysis of SK-CO-1 (DELFIA)” value was found to be 1.02 nM; the “EC50 (nM), NK lysis of ZR-75-30 (DELFIA)” value was 1.58 nM. For the same molecule, in the test with human CEACAM5 on cells, the “Max Killing (%), HPAF-II” value was found to be 29.8%; the “Max Killing (%), LS-174T” value is 42.6%; the “Max Killing (%), SK-CO-1” value was found to be 80.9%; the “Max Killing (%), ZR-75-30” value worked out at 29.8%. In the test with Human CEACAM5 (E398) [2], this molecule returned a Kd of 14 nM and a kon of 140000 M⁻¹ s⁻¹. Also, in the test with Human CEACAM5 (E398) [3], binding was characterised by a dissociation constant (Kd) of 17 nM and the kon came out at 100000 M⁻¹ s⁻¹.

By Kd is commonly meant a measure of binding affinity in units of concentration. Low values mean higher affinity, high ones lower affinity. By kon is commonly meant the rate constant with which the complex forms.
